Assay results taken from the supplement of paper PMC9112550, “Optimization of the antimicrobial peptide Bac7 by deep mutational scanning” (BMC Biology, 2022).

Tested on: Escherichia coli TOP10
Assay: shrunken log2 fold change of peptide-encoding DNA abundance (4.5 h post-induction vs induction); higher = less antimicrobial activity (less host growth inhibition)
Settings: time post-induction: 4.5 h; library: site-saturation at positions 5, 18, 19, 20
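Note: peptides expressed intracellularly from a pBAD plasmid library in pooled LB shake-flask culture, induced with 0.3% L-arabinose, DNA abundance read by NGS, three biological replicates, DESeq2 with apeglm shrinkage.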

Sequence	shrunken log2 fold change
RRIRERPPRLPRPRPRPRECPRP	-0.018
RRIRERPPRLPRPRPRPREWPRP	0.325
RRIRERPPRLPRPRPRPRFIPRP	-0.414
RRIRERPPRLPRPRPRPRGFPRP	-0.0872
RRIRERPPRLPRPRPRPRHEPRP	-0.304
RRIRERPPRLPRPRPRPRIEPRP	-0.0877
RRIRERPPRLPRPRPRPRIIPRP	0.0824
RRIRERPPRLPRPRPRPRIVPRP	-0.0184
RRIRERPPRLPRPRPRPRIWPRP	0.143
RRIRERPPRLPRPRPRPRKSPRP	-0.131
RRIRERPPRLPRPRPRPRLWPRP	0.0271
RRIRERPPRLPRPRPRPRMVPRP	-0.462
RRIRERPPRLPRPRPRPRNWPRP	-0.0255
RRIRERPPRLPRPRPRPRPEPRP	0.314
RRIRERPPRLPRPRPRPRPPPRP	0.69
RRIRERPPRLPRPRPRPRPVPRP	0.114
RRIRERPPRLPRPRPRPRQEPRP	0.315
RRIRERPPRLPRPRPRPRQLPRP	-0.0334
RRIRERPPRLPRPRPRPRQRPRP	0.32
RRIRERPPRLPRPRPRPRQVPRP	-0.0483
RRIRERPPRLPRPRPRPRSNPRP	-0.0433
RRIRERPPRLPRPRPRPRSYPRP	-0.0497
RRIRERPPRLPRPRPRPRTFPRP	-0.0471
RRIRERPPRLPRPRPRPRTMPRP	-0.135
RRIRERPPRLPRPRPRPRTTPRP	0.00749

Sequence	shrunken log2 fold change
RRIRERPPRLPRPRPRPRVDPRP	0.0531
RRIRERPPRLPRPRPRPRWDPRP	0.143
RRIRERPPRLPRPRPRPRWYPRP	-0.464
RRIRERPPRLPRPRPRPRYGPRP	1.59
RRIRERPPRLPRPRPRPRYMPRP	-0.785
RRIRERPPRLPRPRPRPRYQPRP	-0.227
RRIRERPPRLPRPRPRPSATPRP	0.0731
RRIRERPPRLPRPRPRPSDDPRP	-0.0902
RRIRERPPRLPRPRPRPSDKPRP	-0.982
RRIRERPPRLPRPRPRPSDVPRP	-0.182
RRIRERPPRLPRPRPRPSEFPRP	-0.23
RRIRERPPRLPRPRPRPSFHPRP	-0.549
RRIRERPPRLPRPRPRPSFTPRP	-1.03
RRIRERPPRLPRPRPRPSGWPRP	-0.0693
RRIRERPPRLPRPRPRPSHLPRP	-0.188
RRIRERPPRLPRPRPRPSIIPRP	-0.188
RRIRERPPRLPRPRPRPSKHPRP	-0.775
RRIRERPPRLPRPRPRPSKTPRP	-0.0833
RRIRERPPRLPRPRPRPSMYPRP	-0.516
RRIRERPPRLPRPRPRPSNFPRP	-0.909
RRIRERPPRLPRPRPRPSPLPRP	-0.0982
RRIRERPPRLPRPRPRPSPPPRP	-0.013
RRIRERPPRLPRPRPRPSQHPRP	-0.49
RRIRERPPRLPRPRPRPSSFPRP	-0.426
RRIRERPPRLPRPRPRPSSVPRP	-0.306

Sequence	shrunken log2 fold change
RRIRERPPRLPRPRPRPSWQPRP	-0.00861
RRIRERPPRLPRPRPRPSWVPRP	-0.178
RRIRERPPRLPRPRPRPSYIPRP	-0.216
RRIRERPPRLPRPRPRPTCHPRP	-0.186
RRIRERPPRLPRPRPRPTCIPRP	-0.23
RRIRERPPRLPRPRPRPTDDPRP	-0.00106
RRIRERPPRLPRPRPRPTEGPRP	0.0858
RRIRERPPRLPRPRPRPTERPRP	0.0425
RRIRERPPRLPRPRPRPTFHPRP	-0.0533
RRIRERPPRLPRPRPRPTGCPRP	0.155
RRIRERPPRLPRPRPRPTGFPRP	-0.00436
RRIRERPPRLPRPRPRPTGKPRP	-0.0509
RRIRERPPRLPRPRPRPTHIPRP	-0.924
RRIRERPPRLPRPRPRPTHPPRP	0.447
RRIRERPPRLPRPRPRPTLYPRP	-0.184
RRIRERPPRLPRPRPRPTMLPRP	0.00422
RRIRERPPRLPRPRPRPTQLPRP	0.251
RRIRERPPRLPRPRPRPTSFPRP	0.0302
RRIRERPPRLPRPRPRPTSWPRP	0.0831
RRIRERPPRLPRPRPRPTYMPRP	-0.121
RRIRERPPRLPRPRPRPTYVPRP	-0.132
RRIRERPPRLPRPRPRPTYWPRP	-0.219
RRIRERPPRLPRPRPRPVAWPRP	0.00482
RRIRERPPRLPRPRPRPVCNPRP	-0.12
RRIRERPPRLPRPRPRPVCVPRP	-0.0194

Sequence	shrunken log2 fold change
RRIRERPPRLPRPRPRPVDGPRP	0.222
RRIRERPPRLPRPRPRPVFVPRP	-0.178
RRIRERPPRLPRPRPRPVGMPRP	-0.0934
RRIRERPPRLPRPRPRPVGNPRP	-0.191
RRIRERPPRLPRPRPRPVGQPRP	0.129
RRIRERPPRLPRPRPRPVIHPRP	-0.106
RRIRERPPRLPRPRPRPVKNPRP	0.0428
RRIRERPPRLPRPRPRPVKPPRP	-0.102
RRIRERPPRLPRPRPRPVLDPRP	-0.12
RRIRERPPRLPRPRPRPVLIPRP	-0.153
RRIRERPPRLPRPRPRPVMIPRP	-0.22
RRIRERPPRLPRPRPRPVNWPRP	-0.0528
RRIRERPPRLPRPRPRPVPPPRP	0.22
RRIRERPPRLPRPRPRPVPRPRP	0.151
RRIRERPPRLPRPRPRPVSDPRP	-0.26
RRIRERPPRLPRPRPRPVSHPRP	-0.0904
RRIRERPPRLPRPRPRPVSQPRP	-0.0404
RRIRERPPRLPRPRPRPVTQPRP	-0.282
RRIRERPPRLPRPRPRPVVCPRP	0.0991
RRIRERPPRLPRPRPRPWANPRP	-0.0497
RRIRERPPRLPRPRPRPWCCPRP	-0.244
RRIRERPPRLPRPRPRPWCMPRP	-0.533
RRIRERPPRLPRPRPRPWERPRP	0.0496
RRIRERPPRLPRPRPRPWFNPRP	-0.599
RRIRERPPRLPRPRPRPWFQPRP	-0.0883

Sequence	shrunken log2 fold change
RRIRERPPRLPRPRPRPWFYPRP	-0.985
RRIRERPPRLPRPRPRPWGLPRP	-0.026
RRIRERPPRLPRPRPRPWHMPRP	-0.0037
RRIRERPPRLPRPRPRPWHSPRP	-0.252
RRIRERPPRLPRPRPRPWIGPRP	0.155
RRIRERPPRLPRPRPRPWKKPRP	-0.0959
RRIRERPPRLPRPRPRPWKTPRP	0.0324
RRIRERPPRLPRPRPRPWLAPRP	0.564
RRIRERPPRLPRPRPRPWQGPRP	0.0776
RRIRERPPRLPRPRPRPWQSPRP	-0.00865
RRIRERPPRLPRPRPRPWRTPRP	-0.259
RRIRERPPRLPRPRPRPWRYPRP	-0.176
RRIRERPPRLPRPRPRPWSEPRP	-0.398
RRIRERPPRLPRPRPRPWWDPRP	-0.0282
RRIRERPPRLPRPRPRPWYLPRP	0.0355
RRIRERPPRLPRPRPRPWYTPRP	3.82
RRIRERPPRLPRPRPRPYAEPRP	-0.447
RRIRERPPRLPRPRPRPYDWPRP	-0.0444
RRIRERPPRLPRPRPRPYEAPRP	-0.59
RRIRERPPRLPRPRPRPYETPRP	0.0614
RRIRERPPRLPRPRPRPYFAPRP	-0.373
RRIRERPPRLPRPRPRPYFGPRP	-0.673
RRIRERPPRLPRPRPRPYHIPRP	-0.212
RRIRERPPRLPRPRPRPYKAPRP	-0.123
RRIRERPPRLPRPRPRPYLSPRP	-0.515

Sequence	shrunken log2 fold change
RRIRERPPRLPRPRPRPYMCPRP	-0.216
RRIRERPPRLPRPRPRPYNNPRP	-0.822
RRIRERPPRLPRPRPRPYQYPRP	-0.0129
RRIRERPPRLPRPRPRPYRVPRP	-0.236
RRIRERPPRLPRPRPRPYVAPRP	-0.72
RRIRERPPRLPRPRPRPYVMPRP	-0.401
RRIRERPPRLPRPRPRPYVNPRP	0.0121
RRIRERPPRLPRPRPRPYWPPRP	-0.249
RRIRERPPRLPRPRPRPYYCPRP	-0.913
RRIRERPPRLPRPRPRPYYMPRP	-0.785
RRIRERPPRLPRPRPRPYYSPRP	-0.0755
RRIRFRPPRLPRPRPRPACEPRP	-0.0985
RRIRFRPPRLPRPRPRPACGPRP	0.0797
RRIRFRPPRLPRPRPRPADWPRP	0.36
RRIRFRPPRLPRPRPRPAEAPRP	0.254
RRIRFRPPRLPRPRPRPAEGPRP	0.234
RRIRFRPPRLPRPRPRPAFGPRP	0.21
RRIRFRPPRLPRPRPRPAFIPRP	-0.274
RRIRFRPPRLPRPRPRPAHGPRP	0.418
RRIRFRPPRLPRPRPRPAIEPRP	0.519
RRIRFRPPRLPRPRPRPAIQPRP	-0.102
RRIRFRPPRLPRPRPRPAIWPRP	0.195
RRIRFRPPRLPRPRPRPAKNPRP	-0.0212
RRIRFRPPRLPRPRPRPAKPPRP	0.901
RRIRFRPPRLPRPRPRPALMPRP	-0.0289
